Data: PMC10200313 (ACS chemical biology, 2022)

Target: T1, 6E peptide (14-mer peptide derived from UBC6e, with N-terminal triglycine motif) (Homo sapiens, UniProt Q9Y385)
T1 chain: QADQEAKELARQIS
Assay: SPR

B1: Nb6E labeled with biotin (Nb6E-biotin) (VHH)
VHH: QVQLQESGGGLVQPGGSLRLSCAASGFVFENSAMAWYRQAPGKERELIAVIGTTFIKLAESVKGRFTISRDNAKSTVYLQMNNLKPEDTAVYYCSKSGAYWGQGTQVTVSS
  binding result: binds
